Laboratory results as given in PMC6838142, “Nano-Antagonist Alleviates Inflammation and Allows for MRI of Atherosclerosis” (Nanotheranostics, 2019).
Entries after “also recorded” stand apart in the source; their conditions may differ.

Experiments:
BMDMs = experiment: GSH/GSSG assay in LPS-primed BMDMs; type: cell-based, mouse; details: LPS-primed (100 ng/mL) BMDMs, 5 µM CCTV vs vehicle, 8 experiments
[1] = Dynamic light scattering of nanoparticles; type: physicochemical; details: Malvern Zetasizer Nano S; for Size (Mean Z average): hydrodynamic diameter
Description: Lipid-peptide conjugates were synthesized from either DSPE-PEG-CO2H or DSPE-PEG-MAL using peptides derived using SVM prediction platform and listed in Supplementary Table S2. The peptides were conjugated to either the N-terminus or via sulfhydryl groups as depicted in Figure 1E. Lipid films from both PEGylated derivatives were prepared by evaporation under nitrogen gas, from 1 µM of lipid solution in chloroform. Tetrapeptides were custom-synthesized by Genscript. 5 µmol of peptide solutions in water:dimethylformamide (1:1) were prepared via a brief bath sonication. […] PEGylated lipids prepared above were sonicated (10 min, 300 W, room temperature) in 5 mL of MES (pH 6, 100 mM) for DSPE-PEG-CO2H and in 5 mL of HEPES buffered saline [HBS] (pH 7.2, 100 mM, 154 mM NaCl) for DSPE-PEG-MAL. Next, DSPE-PEG-CO2H was activated by the addition of 2 mg of EDC (20 mg/mL in water) and 5 mg of sulfo-NHS (10 mg/mL in water). This was sonicated at 15 W for 10 min in a temperature controlled bath at 30 °C. Then, peptide solutions/suspensions were added to the resulting DSPE-PEG-NHS or previously prepared DSPE-PEG-MAL and stirred at room temperature for 4 h. The reaction with DSPE-PEG-NHS was quenched by the addition of 100 µL of 0.5 M of NH2OH in HBS, plus 1 mM EDTA. The reaction with DSPE-PEG-MAL was quenched by the addition of 7 µL of 2-mercaptoethanol. The solution was freezed at -80 °C and lyophilized. Next, lipid-peptide conjugates were extracted with chloroform (3 x 2 mL) and centrifuged at 4000 g x 5 min. Combined extract supernatants were evaporated under N2 gas and sonicated (10 min, 100 W) in 0.5-1 mL of water at room temperature. This raw product was purified by size […] chromatography as follows. Millipore Vantage column (10 x 500 mm) was packed with Sepharose 4B in deionized water under flow rate of 0.5 mL/min. Next, 0.5 mL of raw nanoparticle preparation was injected into the column and 0.5 mL fractions were collected at 0.5 mL/min simultaneously with UV detection at 190, 214, 250 and 280 nm using the Bio Rad DuoFlow system equipped with BioLogic QuadTec UV/Vis detector. See Supplementary Figure S2 for representative chromatograms. Combined fractions 15-31 were frozen and lyophilized. Particles used in signalling In vitro work were prepared by reconstitution of lyophilizates in PBS or HBS buffer via sonication. Particles used in reporter, flow cytometry and microscopy experiments were prepared by addition of 1% (by weight) of Rhodamine-PE in ethanol followed by reconstitution as described above. Particles used in magnetic resonance imaging (MRI) and time-resolved fluorescence (TRF) assays were prepared by addition of 10-20% (by weight) of gadolinium or europium chelate-lipids followed by reconstitution as above. Gadolinium-DTPA (18:0 PE-DTPA) was obtained from Avanti Polar Lipids and europium cryptate-NHS was obtained from Aat Bioquest (Supplementary Table S1). Europium cryptate-NHS was further conjugated to phosphatidylethanolamine (PE) to obtain Eu-cryptate-PE according to published and well established protocols. To confirm peptide conjugation, the powder was reconstituted in 1 mL of chloroform and analyzed with TLC (eluent chloroform:methanol:water 65:25:4) detecting with Molybdenum blue (Supplementary Figure S3A) or Dragendorff reagent (Supplementary Figure S3B). Nanoparticles were characterized by dynamic light scattering using Malvern Zetasizer Nano S (Supplementary Table S3). The presence of the peptide bond (N-H) and aliphatic C-H and C-C stretches (lipids) was confirmed by infrared (IR) spectroscopy. Nanoparticles were isolated as a homogeneous population (peak) in gel-filtration (see above) and were used without additional purification.

[2] = tested on: F4/80-positive plaque macrophages; experiment: Immunohistochemistry / plaque macrophage co-staining; type: in vivo, mouse; details: rhodamine signal, 24 h after injection
Description: Twenty-four hours after nanoparticle injection (see above), mice were euthanized and abdominal aortas were isolated and embedded in Optimal Cutting Temperature compound. After cryotome-sectioning, resulting in 20-30 slides per mouse, 15 slides were sent to Ohio State laser capture microdissection core lab for capture and analysis. The rest of the slides were processed as follows: after fixation in methanol:acetone 50:50 at -20 °C, slides were hydrated in PBS, blocked for 30 min in fish serum (Aqua Block) and stained for 1 h with primary antibodies against F4/80 followed washing and staining with HRP-conjugated secondary antibody for 30 min. DAB peroxidase kit was then used as per manufacturer's instructions followed by mounting. DAB and antibody staining (but not wash steps) was omitted in slides designated for nanoparticle fluorescence visualization. Nanoparticles fluorescence was visualized with Zeiss 510 LSM-meta confocal microscope and 20x objective. DAB F4/80 staining was visualized with Nikon FN1 microscope and same power objective.

[3] = tested on: bone marrow derived monocytes, CCL2-induced migration; experiment: CCL2-induced chemotaxis assay; type: cell-based, mouse; details: pre-treated BMDMs; 100 nM recombinant mouse CCL2, 12 h; nanoparticles
Description: Chemotaxis assays were performed using IBIDI µ-Slides as per the manufacturer's instructions and the recently published guide detailing the protocol. […] Cells were allowed to attach for 3 h at 37 °C, washed with 0.2 mL warm cell culture medium using a pipette tip inserted into µ-channel port, following which 100 nM recombinant mouse CCL2 protein was added as a chemoattractant (or omitted in control slides) to the one of side reservoirs. Cell movement was recorded for a duration of 12 h via phase video-microscopy in a stage-top humidified incubator at 37 °C and 5% CO2 atmosphere. Analysis was performed using the ImageJ IBIDI tracking tool, available free of charge at https://ibidi.com.

[4] = tested on: caspase 3 and heme oxygenase (HO-1) proteins in RAW cells; experiment: Immunoblot of active caspase 3 and HO-1; type: cell-based, mouse; details: 1 µM nanoparticles, 3 h
Description: Immunoblotting was performed as previously described with the following modifications. Briefly, cell lysates were obtained in SDS lysis buffer consisting of 2% SDS, 50 mM Tris-HCl (pH 6.8), 100 mM DTT, 5% Ficoll 400, 0.0001% bromophenol blue and a cocktail of protease inhibitors. Lysates were sonicated on ice before heating at 97 °C for 7 min to completely denature the protein. Protein concentration was determined using IR spectroscopy (which is insensitive to high SDS and DTT concentrations) with a Millipore DirectDetect spectrometer. Lysates were equally loaded at 10-15 µg per lane on BioRad TGX Criterion gels (4-15%) and resolved at 300 V in Tris-Glycine running buffer. Proteins were transferred on nitrocellulose membranes using the BioRad TransBlot turbo according to the manufacturer's instructions. Membranes were blocked in fish serum (Aqua Block) or 5% nonfat dry milk in TBS-T (0.05% Tween 20) and probed overnight at 4 °C with primary antibodies as indicated in Supplementary Table S1. The membranes were washed in TBS-T and incubated with secondary antibodies for 1 h at room temperature. After washing, semi-quantitative visualization of the proteins of interest was enabled using an enhanced chemiluminescence reagent as previously described and the Azure C400 western blot imaging system.
N-acetylcysteine (NAC) served as an antioxidant control. β-Actin was used as a loading control. B) Gene expression analysis in RAW cells treated with 1 µM of vehicle, CCTV and VTCC (peptide nanoparticle control) for 24 h. mRNA expression of mannose receptor (Mrc1), nitric oxide synthase 2 (Nos2), tumor necrosis factor (Tnf), interleukin-1beta (Il1b), and interleukin-6 (Il6) were analyzed. C) Cytokines in cell culture supernatants were analyzed as indicated. D) Schematic representation of transcriptional activation of primary and secondary inflammatory response to lipopolysaccharide (LPS). E) Immunoblot analysis of dose-dependent suppression of IL-1β and HO-1 production by CCTV with and without stimulation by 100 ng/mL LPS for 16 h in bone marrow derived macrophages (BMDMs). GAPDH served as a loading control. F) Chemotaxis assays in bone marrow derived monocytes treated with 5 µM vehicle, CCTV, VTCC or left untreated. Chemotaxis was stimulated by introducing a gradient of recombinant mouse CCL2. Forty (out of 150-300) cell migration tracks are presented for simplicity. Metrics of chemotactic behaviour i.e. velocity, distance travelled, and chemotactic index were quantified as presented in bar graphs. G) BMDMs were pre-treated for 6 h with 5 µM CCTV or VTCC followed by 500 nM CCL2 for the indicated times. […] P values are calculated by t-test and error bars are standard errors of three independent experiments.

[5] = tested on: interleukin-1 beta (IL-1β); details: CANTOS clinical trial, cited from earlier work
Description: Inflammation is a process of immune system activation that is often accompanied by increased migration of immune cells to a site of injury or disease. Inflammation-driven immune cell migration is orchestrated via chemokine receptor-ligand pairs that are ubiquitously expressed in innate immune cells and are hyperactivated in many pathologies.

Q: With CC(=O)N[C@@H](CS)C(=O)O [NAC, N-Acetyl-L-cysteine, reference compound] as the compound, how does the GSH levels (BMDMs) read?
A: In contrast to classic antioxidant NAC, CCTV was unable to restore GSH levels

Q: And the GSSG levels (BMDMs)?
A: In contrast to classic antioxidant NAC, CCTV was unable to restore GSH levels or reduce GSSG

Q: For “LLIA [A3, LLIA peptide-lipid conjugate nanoparticle, N-terminus conjugation]”, which “Mean Polydispersity Index (PDI)” value [1] is on record?
A: 0.162

Q: What about the “Size (Mean Z average)” value [1] of the same compound?
A: 134 nm

Q: With “KISV [A4, KISV peptide-lipid conjugate nanoparticle, N-terminus conjugation]” as the compound, how does the “Mean Polydispersity Index (PDI)” value [1] read?
A: 0.09

Q: And the “Size (Mean Z average)” value [1]?
A: 114 nm

Q: For “KTIV [A6, KTIV peptide-lipid conjugate nanoparticle, N-terminus conjugation]”, which “Mean Polydispersity Index (PDI)” value [1] is on record?
A: 0.054

Q: What about the “Size (Mean Z average)” value [1] of the same compound?
A: 142 nm

Q: Which “Mean Polydispersity Index (PDI)” value ([1]; listed as C3) does the source give for VTCC here?
A: 0.148

Q: And the “Size (Mean Z average)” value ([1]; listed as C3)?
A: 167 nm

Q: And the “co-staining with F4/80 in plaque” value [2]?
A: not VTCC rhodamine signal

Q: What about the CCL2-induced monocyte migration [3] of the same compound?
A: not seen with VTCC

Q: Which “Mean Polydispersity Index (PDI)” value [1] does the source give for “KVSA [A2, KVSA peptide-lipid conjugate nanoparticle, N-terminus conjugation]” here?
A: 0.124

Q: What about the “Size (Mean Z average)” value [1] of the same compound?
A: 110 nm

Q: What does the source list for “MKVS [C1, MKVS peptide-lipid conjugate nanoparticle, N-terminus conjugation]”?
A: Mean Polydispersity Index (PDI) [1]: 0.159; Size (Mean Z average) [1]: 189 nm

Q: For “RLAS [A1, RLAS peptide-lipid conjugate nanoparticle, N-terminus conjugation]”, which “Mean Polydispersity Index (PDI)” value [1] is on record?
A: 0.198

Q: And the “Size (Mean Z average)” value [1]?
A: 93 nm

Q: What does the source list for CCTV [N-term CCTV]?
A: apoptosis and cell death (RAW cells): significant apoptosis and cell death; active (cleaved at Asp175, p19/17) caspase 3 [4]: upregulation; also recorded: significant apoptosis-associated caspase-3 activity; heme oxygenase-1 (HO-1) levels [4]: upregulation; also recorded: increased

Q: With VTCC [A5] as the compound, how does the “apoptosis and cell death” value (RAW cells) read?
A: significant apoptosis and cell death

Q: And the “Mean Polydispersity Index (PDI)” value [1]?
A: 0.141

Q: And the “Size (Mean Z average)” value [1]?
A: 76 nm

Q: And the “active (cleaved at Asp175, p19/17) caspase 3” value ([4]; listed as N-term VTCC)?
A: upregulation

Q: What about the “heme oxygenase-1 (HO-1) levels” value ([4]; listed as N-term VTCC) of the same compound?
A: upregulation

Q: Which “Mean Polydispersity Index (PDI)” value [1] does the source give for “HLDK [B3, HLDK peptide-lipid conjugate nanoparticle, N-terminus conjugation]” here?
A: 0.257

Q: What about the “Size (Mean Z average)” value [1] of the same compound?
A: 61 nm

Q: Which “Mean Polydispersity Index (PDI)” value [1] does the source give for “IVAK [B2, IVAK peptide-lipid conjugate nanoparticle, N-terminus conjugation]” here?
A: 0.058

Q: What about the “Size (Mean Z average)” value [1] of the same compound?
A: 53 nm

Q: With “ALLC [C4, ALLC peptide-lipid conjugate nanoparticle, SH conjugation]” as the compound, how does the “Mean Polydispersity Index (PDI)” value [1] read?
A: 0.002

Q: And the “Size (Mean Z average)” value [1]?
A: 79 nm

Q: For “ALLC [B4, ALLC peptide-lipid conjugate nanoparticle, N-terminus conjugation]”, which “Mean Polydispersity Index (PDI)” value [1] is on record?
A: 0.151

Q: What about the “Size (Mean Z average)” value [1] of the same compound?
A: 86 nm

Q: With “DKQT [B1, DKQT peptide-lipid conjugate nanoparticle, N-terminus conjugation]” as the compound, how does the “Mean Polydispersity Index (PDI)” value [1] read?
A: 0.176

Q: And the “Size (Mean Z average)” value [1]?
A: 204 nm

Q: For “canakinumab: interleukin-1 beta (IL-1β) neutralizing monoclonal antibody”, which cardiovascular events ([5]; cardiovascular disease) is on record?
A: a reduction in cardiovascular events

Q: And the “risk of death from infection and sepsis” value [5]?
A: significantly increased risk of death from infection and sepsis

Q: Which “Mean Polydispersity Index (PDI)” value [1] does the source give for “LLLI [B6, LLLI peptide-lipid conjugate nanoparticle, N-terminus conjugation]” here?
A: 0.152

Q: What about the “Size (Mean Z average)” value [1] of the same compound?
A: 223 nm

Q: Which “Mean Polydispersity Index (PDI)” value [1] does the source give for “MDHL [C2, MDHL peptide-lipid conjugate nanoparticle, N-terminus conjugation]” here?
A: 0.111

Q: And the “Size (Mean Z average)” value [1]?
A: 134 nm

Q: For “QDSM [B5, QDSM peptide-lipid conjugate nanoparticle, N-terminus conjugation]”, which “Mean Polydispersity Index (PDI)” value [1] is on record?
A: 0.169

Q: What about the “Size (Mean Z average)” value [1] of the same compound?
A: 198 nm
